# Patent US11292821B2, “Peptides and combination of peptides for use in immunotherapy against lung cancer, including NSCLC, SCLC and other cancers” (Immatics Biotechnologies GmbH, priority 2017, dated 2022)
# Tests used:
# [1] = test system: CD8+ T cells; assay: In vitro T-cell priming assay with aAPCs (in vitro immunogenicity for MHC class I presented peptides); assay type: cell-based, human; details: in vitro immunogenicity
# [2] = biological target: HLA-A*02 (Homo sapiens, UniProt P04439, D140Y/D185E/D98H/E176V/E277Q/G131W/G231S/I119V/I121R/I166T/I218V/N151K/N90K/P208A/P217A/Q86G/Q94H/R138H/R169H); assay: MHC binding assay (UV-ligand exchange, β2m ELISA)
# [3] = biological target: HLA-A*03 (Homo sapiens, UniProt P04439); assay: MHC binding assay (UV-ligand exchange, β2m ELISA)
# [4] = test system: HLA-B*08; assay: MHC binding assay (UV-ligand exchange, β2m ELISA); set-up: species or system human
Substance,Wells positive [%] ([1]; HLA A*02),"Peptide exchange (peptide exchange yield, MHC class I binding score) [2]","Peptide exchange (peptide exchange yield, MHC class I binding score) [3]",other results
84 (YVDINTFRL; listed as Homo sapiens) [compound 84],“+” (<20% = +),“++++” (>75% = ++++),,
85 (YIDEFQSLV; listed as Homo sapiens) [compound 85],“++” (20%-49% = ++),“++++” (>75% = ++++),,
87 (TLYPYQISQL; listed as Homo sapiens) [compound 87],“++” (20%-49% = ++),“++++” (>75% = ++++),,
88 (VQMVITEAQKV; listed as Homo sapiens) [compound 88],“++” (20%-49% = ++),“++++” (>75% = ++++),,
89 (ILSTTMVTV; listed as Homo sapiens) [compound 89],“+++” (50%-69% = +++),“++++” (>75% = ++++),,
93 (TLQEKILQV; listed as Homo sapiens) [compound 93],“+” (<20% = +),“++++” (>75% = ++++),,
94 (VLPDIETLIGV; listed as Homo sapiens) [compound 94],“+++” (50%-69% = +++),“++++” (>75% = ++++),,
95 (ITIGVLARV; listed as Homo sapiens) [compound 95],“++++” (>=70% = ++++),“++++” (>75% = ++++),,
96 (HLVGGLHTV; listed as Homo sapiens) [compound 96],“+++” (50%-69% = +++),“++++” (>75% = ++++),,
97 (VLALVNSTV; listed as Homo sapiens) [compound 97],“+++” (50%-69% = +++),“++++” (>75% = ++++),,
101 (FIISDWRFVL; listed as Homo sapiens) [compound 101],“+” (<20% = +),“+++” (>50 = +++),,
125 (VLQPFLPSI; listed as Homo sapiens) [compound 125],“++++” (>=70% = ++++),“++++” (>75% = ++++),,
127 (GLDGSLVFL; listed as Homo sapiens) [compound 127],“++” (20%-49% = ++),“++++” (>75% = ++++),,
128 (FLGTTPTL; listed as Homo sapiens) [compound 128],“+” (<20% = +),“++++” (>75% = ++++),,
129 (VLYDKDAVYV; listed as Homo sapiens) [compound 129],“++” (20%-49% = ++),“++++” (>75% = ++++),,
130 (NLWGGQGLLGV; listed as Homo sapiens) [compound 130],“+” (<20% = +),“++++” (>75% = ++++),,
131 (LLKEFVQRV; listed as Homo sapiens) [compound 131],“++++” (>=70% = ++++),“++++” (>75% = ++++),,
132 (ALWLVDPLTV; listed as Homo sapiens) [compound 132],“+++” (50%-69% = +++),“++++” (>75% = ++++),,
133 (MTLPVDAVISV; listed as Homo sapiens) [compound 133],“+” (<20% = +),“++++” (>75% = ++++),,
202 (KLAELEGALQK; listed as Homo sapiens) [compound 202],,,“++++” (>75% = ++++),
203 (KVKDTPGLGK; listed as Homo sapiens) [compound 203],,,“++++” (>75% = ++++),
204 (AVFDKFIRY; listed as Homo sapiens) [compound 204],,,“++++” (>75% = ++++),
205 (SLDGAARPK; listed as Homo sapiens) [compound 205],,,“++++” (>75% = ++++),Wells positive [%] ([1]; HLA A*03): “++” (20%-49% = ++)
206 (KLIDLSQVMY; listed as Homo sapiens) [compound 206],,,“++++” (>75% = ++++),
207 (RSFNGLLTMY; listed as Homo sapiens) [compound 207],,,“++++” (>75% = ++++),
208 (GLASRILDAK; listed as Homo sapiens) [compound 208],,,“++++” (>75% = ++++),Wells positive [%] ([1]; HLA A*03): “+” (<20% = +)

Substance,Wells positive [%] ([1]; HLA A*02),"Peptide exchange (peptide exchange yield, MHC class I binding score) [2]","Peptide exchange (peptide exchange yield, MHC class I binding score) [3]",other results
209 (RTQIPMSEK; listed as Homo sapiens) [compound 209],,,“++++” (>75% = ++++),Wells positive [%] ([1]; HLA A*03): “+” (<20% = +)
210 (ATSGVPVYK; listed as Homo sapiens) [compound 210],,,“++++” (>75% = ++++),Wells positive [%] ([1]; HLA A*03): “++++” (>=70% = ++++)
211 (TVNPVAIHK; listed as Homo sapiens) [compound 211],,,“++++” (>75% = ++++),
212 (KAYEQVMHY; listed as Homo sapiens) [compound 212],,,“++++” (>75% = ++++),
214 (RTMSEAALVRK; listed as Homo sapiens) [compound 214],,,“++++” (>75% = ++++),Wells positive [%] ([1]; HLA A*03): “+” (<20% = +)
215 (MMFSGPQILKL; listed as Homo sapiens) [compound 215],,,“++++” (>75% = ++++),
216 (KLYAWELAF; listed as Homo sapiens) [compound 216],,,“+++” (>50 = +++),
217 (RILNQILYY; listed as Homo sapiens) [compound 217],,,“++++” (>75% = ++++),
218 (KTLVAELLILK; listed as Homo sapiens) [compound 218],,,“+++” (>50 = +++),Wells positive [%] ([1]; HLA A*03): “+” (<20% = +)
219 (RLRSSLVFK; listed as Homo sapiens) [compound 219],,,“++++” (>75% = ++++),
296 (MPMQDIKM; listed as Homo sapiens) [compound 296],,,,"Peptide exchange (peptide exchange yield, MHC class I binding score) [4]: “++++” (>75% = ++++)"
301 (YMHKLLVL; listed as Homo sapiens) [compound 301],,,,"Peptide exchange (peptide exchange yield, MHC class I binding score) [4]: “++++” (>75% = ++++)"
302 (HLLQKQTSI; listed as Homo sapiens) [compound 302],,,,"Peptide exchange (peptide exchange yield, MHC class I binding score) [4]: “+++” (>50 = +++)"
304 (ELKKLYCQI; listed as Homo sapiens) [compound 304],,,,"Peptide exchange (peptide exchange yield, MHC class I binding score) [4]: “++++” (>75% = ++++)"
309 (DAIQRKYSC; listed as Homo sapiens) [compound 309],,,,"Peptide exchange (peptide exchange yield, MHC class I binding score) [4]: “+++” (>50 = +++)"
310 (LPPKKFVL; listed as Homo sapiens) [compound 310],,,,"Peptide exchange (peptide exchange yield, MHC class I binding score) [4]: “++++” (>75% = ++++)"
391 (SLIDMRGIETV; listed as Homo sapiens) [compound 391],,“++++” (>75% = ++++),,
392 (SLFKDQMEL; listed as Homo sapiens) [compound 392],“+” (<20% = +),“++++” (>75% = ++++),,
393 (ILLPYLQTL; listed as Homo sapiens) [compound 393],“+” (<20% = +),“++++” (>75% = ++++),,
453 (AINTSIKNK; listed as Homo sapiens) [compound 453],,,“++++” (>75% = ++++),
454 (KVYTPSISK; listed as Homo sapiens) [compound 454],,,“++++” (>75% = ++++),
455 (RIADIFVKK; listed as Homo sapiens) [compound 455],,,“++++” (>75% = ++++),
456 (SMFTAILKK; listed as Homo sapiens) [compound 456],,,“++++” (>75% = ++++),
457 (SINKPTSER; listed as Homo sapiens) [compound 457],,,“++++” (>75% = ++++),
458 (GIADFVLKY; listed as Homo sapiens) [compound 458],,,“++++” (>75% = ++++),
